In publication PMC5003816:

Molecular target: HSP70 (mouse, endogenous), Q61696
Assay: UBQLN2 IP and western blot quantification (primary MEFs)
Conditions: chain shown with the change; n = 3; read off a plot

Sequence of HSP70 (mouse, endogenous), Q61696 (Q61696 whole entry): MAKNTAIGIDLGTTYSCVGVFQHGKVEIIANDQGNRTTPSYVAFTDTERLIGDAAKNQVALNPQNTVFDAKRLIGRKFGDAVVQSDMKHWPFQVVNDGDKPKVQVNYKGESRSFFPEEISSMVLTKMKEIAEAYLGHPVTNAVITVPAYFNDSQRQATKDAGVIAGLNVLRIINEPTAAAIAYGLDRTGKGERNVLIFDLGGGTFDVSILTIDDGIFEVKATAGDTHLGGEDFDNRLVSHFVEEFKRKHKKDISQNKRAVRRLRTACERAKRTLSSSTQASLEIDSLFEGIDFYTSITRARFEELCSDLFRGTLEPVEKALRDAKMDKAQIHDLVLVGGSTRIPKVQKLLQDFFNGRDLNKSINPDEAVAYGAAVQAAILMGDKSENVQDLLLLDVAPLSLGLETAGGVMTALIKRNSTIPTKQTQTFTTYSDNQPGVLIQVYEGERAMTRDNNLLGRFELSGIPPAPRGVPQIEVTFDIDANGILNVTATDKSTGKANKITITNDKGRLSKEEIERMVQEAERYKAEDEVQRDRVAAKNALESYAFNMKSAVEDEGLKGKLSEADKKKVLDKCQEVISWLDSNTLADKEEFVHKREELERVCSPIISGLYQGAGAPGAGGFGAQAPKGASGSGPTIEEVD

ratio to parent: 0.38
B1: UBQLN2 (mouse, endogenous, wild type), Q9QZM0 mP520T (protein)
chain: MAENGESSGPPRPSRGPAAAPGAASPPAEPKIIKVTVKTPKEKEEFAVPENSTVQQFKEAISKRFKSQTDQLVLIFAGKILKDQDTLMQHGIHDGLTVHLVIKSQNRPQGQATTQPSTTAGTSTTTTTTTTAAAPAATTSSAPRSSSTPTTTNSSSFGLGSLSSLSNLGLNSPNFTELQNQMQQQLLASPEMMIQIMENPFVQSMLSNPDLMRQLIMANPQMQQLIQRNPEISHLLNNPDIMRQTLEIARNPAMMQEMMRNQDLALSNLESIPGGYNALRRMYTDIQEPMLNAAQEQFGGNPFATVGSSSTSGEGTQPSRTENRDPLPNPWAPPPTTQTAATTTTTTTTSSGSGSGSSSSSTTAGNTMAAANYVASIFSTPGMQSLLQQITENPQLIQNMLSAPYMRSMMQSLSQNPDMAAQMMLSSPLFTSNPQLQEQMRPQLPNFLQQMQNPETIAAMSNPRAMQALMQIQQGLQTLATEAPGLIPSFAPGVGMGVLGTAITPVGPVTPIGPIGPIVTFTPIGPIGPIGPTGPASSPGSTGTGIPPATTVSSSAPTETISPTSESGPNQQFIQQMVQALTGGSPPQPPNPEVRFQQQLEQLNAMGFLNREANLQALIATGGDINAAIERLLGSQPS
